Columns and labels:
[1] = biological target: IGFBP-3 (commercially available, upstate biotechnology), P17936
[2] = biological target: IGFBP-5 (commercially available, upstate biotechnology), P24593
[3] = biological target: IGFBP-5-FLAG protein (full-length IGFBP-5 with the FLAG tag of SEQ ID NO: 12 at the C-terminus), P24593
IGFBP-5-FLAG protein (full-length IGFBP-5 with the FLAG tag of SEQ ID NO: 12 at the C-terminus), P24593, sequence (P24593 other isoform, or with tags, fused parts or gaps): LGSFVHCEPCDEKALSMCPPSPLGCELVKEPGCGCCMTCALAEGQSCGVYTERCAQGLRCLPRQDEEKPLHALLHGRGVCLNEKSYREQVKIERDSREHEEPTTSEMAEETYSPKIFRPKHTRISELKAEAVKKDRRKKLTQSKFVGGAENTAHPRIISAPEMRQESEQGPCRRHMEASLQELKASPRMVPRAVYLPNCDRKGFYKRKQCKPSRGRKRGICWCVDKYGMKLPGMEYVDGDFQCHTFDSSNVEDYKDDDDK

IGFBP-5 (commercially available, upstate biotechnology), P24593, sequence (P24593 21-272): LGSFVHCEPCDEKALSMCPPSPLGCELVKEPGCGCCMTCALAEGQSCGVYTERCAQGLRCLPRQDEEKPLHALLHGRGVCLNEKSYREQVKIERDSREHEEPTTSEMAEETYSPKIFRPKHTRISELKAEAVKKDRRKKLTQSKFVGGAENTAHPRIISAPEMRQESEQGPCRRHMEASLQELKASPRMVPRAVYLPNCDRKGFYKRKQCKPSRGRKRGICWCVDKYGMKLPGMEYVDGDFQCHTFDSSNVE
IGFBP-3 (commercially available, upstate biotechnology), P17936, sequence (P17936 28-291): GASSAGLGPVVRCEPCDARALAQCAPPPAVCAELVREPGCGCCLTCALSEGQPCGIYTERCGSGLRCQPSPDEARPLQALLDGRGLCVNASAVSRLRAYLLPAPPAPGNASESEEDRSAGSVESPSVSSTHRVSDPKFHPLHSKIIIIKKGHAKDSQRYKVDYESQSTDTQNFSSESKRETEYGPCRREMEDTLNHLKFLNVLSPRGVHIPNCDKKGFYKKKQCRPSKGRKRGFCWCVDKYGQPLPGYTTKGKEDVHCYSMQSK

B1: MD8S-FLAG protein (extracellular region of human MD8, amino acids 1 to 646 of SEQ ID NO: 2, with a C-terminal FLAG tag) (protein)
chain: IAPSRPWALMEQYEVVLPRRLPGPRVRRALPSHLGLHPERVSYVLGATGHNFTLHLRKNRDLLGSGYTETYTAANGSEVTEQPRGQDHCFYQGHVEGYPDSAASLSTCAGLRGFFQVGSDLHLIEPLDEGGEGGRHAVYQAEHLLQTAGTCGVSDDSLGSLLGPRTAAVFRPRPGDSLPSRETRYVELYVVVDNAEFQMLGSEAAVRHRVLEVVNHVDKLYQKLNFRVVLVGLEIWNSQDRFHVSPDPSVTLENLLTWQARQRTRRHLHDNVQLITGVDFTGTTVGFARVSAMCSHSSGAVNQDHSKNPVGVACTMAHEMGHNLGMDHDENVQGCRCQERFEAGRCIMAGSIGSSFPRMFSDCSQAYLESFLERPQSVCLANAPDLSHLVGGPVCGNLFVERGEQCDCGPPEDCRNRCCNSTTCQLAEGAQCAHGTCCQECKVKPAGELCRPKKDMCDLEEFCDGRHPECPEDAFQENGTPCSGGYCYNGACPTLAQQCQAFWGPGGQAAEESCFSYDILPGCKASRYRADMCGVLQCKGGQQPLGRAICIVDVCHALTTEDGTAYEPVPEGTRCGPEKVCWKGRCQDLHVYRSSNCSAQCHNHGVCNHKQECHCHAGWAPPHCAKLLTEDYKDDDDK
activity of digesting IGFBP-3 (overnight reaction at 37 C, SDS-PAGE and western blot) [1]: a new band of 25 kDa was detected in the case of IGFBP-3
activity of digesting IGFBP-5 (overnight reaction at 37 C, SDS-PAGE and western blot) [2]: new plural bands within the range of 12 to 25 kDa were detected in the case of IGFBP-5
activity of digesting recombinant IGFBP-5 (overnight reaction at 37 C, SDS-PAGE and western blot with biotinylated M2 antibody) [3]: recombinant IGFBP-5, which was detected in the control without the MD8S enzyme solution, was made to disappear by adding the MD8S enzyme solution

— patent publication US20040241778
